Residue numbers refer to the chain shown, from its start. Names may count otherwise.
B1: IA2_E64K (antibody, V domains shown)
V domain 1: QVQLQESGPGVVKSSETLSLTCTVSGGSMGGTYWSWLRLSPGKGLEWIGYIFHTGHTNYNPSLKGRVSISVDTSEDQFSLRLRSVTAADTAVYFCASLPRGQLVNAYFRNWGRGTLVSVTA
V domain 2: SYELTQPPSVSVSPGQTATITCSGDKVASKNVCWYQVKPGQSPEVVMYENYKRPSGIPDRFSGSKSGSTATLTIRGTQATDEADYYCQVWDSFSTFVFGSGTQVTV
notes: as the heavy chain of m8 (IA2); as the light chain of m8 (IA2); recombinant IgG; also called the E64K mutant; IA2 E64K mutant; source: Expi293, transiently transfected, purified (Protein A agarose)
B2: CH103 VL D85E mutant (antibody, V domains shown)
V domain 1: B1 V domain 1 with H56E, N60S, T115S
V domain 2: SYELTQPPSVSVSPGQTATITCSGASTNVCWYQVKPGQSPEVVIFENYKRPSGIPDRFSGSKSGSTATLTIRGTQAIDEAEYYCQVWDSFSTFVFGSGTQVTV
notes: as the heavy chain of m10 (CH103); as the light chain of m10 (CH103); recombinant IgG; source: Expi293, transiently transfected, purified (Protein A agarose)
B3: CH103 VH S107I mutant (antibody, V domains shown)
V domain 1: B1 V domain 1 with H56E, N60S, T115I
V domain 2: B2 V domain 2 with E81D
notes: as for B2
B4: CH103 VL T31V mutant (antibody, V domains shown)
V domain 1: B1 V domain 1 with H56E, N60S, T115S
V domain 2: B2 V domain 2 with T27V, E81D
notes: as for B2
B5: CH103 mutant containing both the E56H and E45D mutations (antibody, V domains shown)
V domain 1: B1 V domain 1 with N60S, T115S
V domain 2: B2 V domain 2 with E41D, E81D
notes: as the heavy chain of m10 (CH103); as the light chain of m10 (CH103); recombinant IgG; the double mutant is named only in the results; also called CH103 VH E56H + VL E45D; source: Expi293, transiently transfected, purified (Protein A agarose)
B6: IA1, inferred late intermediate of the CH103-106 bnAb lineage (antibody, V domains shown)
V domain 1: B1 V domain 1 with N60S
V domain 2: B1 V domain 2
notes: as the heavy chain of m8 (IA2) with the two changes below; same light chain as IA2; recombinant IgG; also called 1A1; source: Expi293, transiently transfected, purified (Protein A agarose)
B7: CH103 VH T23S mutant (antibody, V domains shown)
V domain 1: B1 V domain 1 with T23S, H56E, N60S, T115S
V domain 2: B2 V domain 2 with E81D
notes: as for B2
B8: CH103 VL I81T mutant (antibody, V domains shown)
V domain 1: B1 V domain 1 with H56E, N60S, T115S
V domain 2: B2 V domain 2 with I77T, E81D
notes: as for B2
B9: IA2, inferred late intermediate of the CH103-106 bnAb lineage (antibody, V domains shown)
V domain 1: B1 V domain 1 with K64E
V domain 2: B1 V domain 2
notes: same light chain as IA1; recombinant IgG; source: Expi293, transiently transfected, purified (Protein A agarose)
B10: IA2_N60S (antibody, V domains shown)
V domain 1: B1 V domain 1 with N60S, K64E
V domain 2: B1 V domain 2
notes: as the heavy chain of m8 (IA2); as the light chain of m8 (IA2); recombinant IgG; also called the N60S mutant; IA2 N60S mutant; source: Expi293, transiently transfected, purified (Protein A agarose)
B11: CH103, mature CD4 binding site bnAb (antibody, V domains shown)
V domain 1: B1 V domain 1 with H56E, N60S, T115S
V domain 2: B2 V domain 2 with E81D
notes: recombinant IgG; source: Expi293, transiently transfected, purified (Protein A agarose)
B12: CH103 VH E56H mutant (antibody, V domains shown)
V domain 1: B1 V domain 1 with N60S, T115S
V domain 2: B2 V domain 2 with E81D
notes: as the heavy chain of m10 (CH103); as the light chain of m10 (CH103); recombinant IgG; also called the VH E56H mutant; source: Expi293, transiently transfected, purified (Protein A agarose)
B13: CH103 VL E45D mutant (antibody, V domains shown)
V domain 1: B1 V domain 1 with H56E, N60S, T115S
V domain 2: B2 V domain 2 with E41D, E81D
notes: as the heavy chain of m10 (CH103); as the light chain of m10 (CH103); recombinant IgG; also called the VL E45D mutant; source: Expi293, transiently transfected, purified (Protein A agarose)
B14: CH106, mature CD4 binding site bnAb (antibody, V domains shown)
V domain 1: B1 V domain 1 with T23S, N60S, T115I
V domain 2: B1 V domain 2 with K30V, E44D, D84E
notes: as the heavy chain of m10 (CH103) with the three differences below; as the light chain of m10 (CH103) with the differences below and a 3-aa (DKV) insertion; recombinant IgG; source: Expi293, transiently transfected, purified (Protein A agarose)
B15: CH103 VL mutant with the 3-aa insertion (DKV) (antibody, V domains shown)
V domain 1: B1 V domain 1 with H56E, N60S, T115S
V domain 2: B1 V domain 2 with K30T, M47I, Y48F, T80I
notes: as the heavy chain of m10 (CH103); as the light chain of m10 (CH103) with DKV inserted as in CH106; recombinant IgG; also called 3-aa (DKV) insertion; source: Expi293, transiently transfected, purified (Protein A agarose)
B16: CH103 VL I48M mutant (antibody, V domains shown)
V domain 1: B1 V domain 1 with H56E, N60S, T115S
V domain 2: B2 V domain 2 with I44M, E81D
notes: as for B2
B17: CH103 VL F49Y mutant (antibody, V domains shown)
V domain 1: B1 V domain 1 with H56E, N60S, T115S
V domain 2: B2 V domain 2 with F45Y, E81D
notes: as for B2

Columns and labels:
[1] = molecular target: T1, host protein UBE3A (Abcam), coupled to Luminex beads, Q05086; assay: Luminex bead assay; details: chain shown with the change; left panel; highest antibody concentration plotted, est. 2000 ng/ml; parent: est. 12; read off a plot
T1 chain: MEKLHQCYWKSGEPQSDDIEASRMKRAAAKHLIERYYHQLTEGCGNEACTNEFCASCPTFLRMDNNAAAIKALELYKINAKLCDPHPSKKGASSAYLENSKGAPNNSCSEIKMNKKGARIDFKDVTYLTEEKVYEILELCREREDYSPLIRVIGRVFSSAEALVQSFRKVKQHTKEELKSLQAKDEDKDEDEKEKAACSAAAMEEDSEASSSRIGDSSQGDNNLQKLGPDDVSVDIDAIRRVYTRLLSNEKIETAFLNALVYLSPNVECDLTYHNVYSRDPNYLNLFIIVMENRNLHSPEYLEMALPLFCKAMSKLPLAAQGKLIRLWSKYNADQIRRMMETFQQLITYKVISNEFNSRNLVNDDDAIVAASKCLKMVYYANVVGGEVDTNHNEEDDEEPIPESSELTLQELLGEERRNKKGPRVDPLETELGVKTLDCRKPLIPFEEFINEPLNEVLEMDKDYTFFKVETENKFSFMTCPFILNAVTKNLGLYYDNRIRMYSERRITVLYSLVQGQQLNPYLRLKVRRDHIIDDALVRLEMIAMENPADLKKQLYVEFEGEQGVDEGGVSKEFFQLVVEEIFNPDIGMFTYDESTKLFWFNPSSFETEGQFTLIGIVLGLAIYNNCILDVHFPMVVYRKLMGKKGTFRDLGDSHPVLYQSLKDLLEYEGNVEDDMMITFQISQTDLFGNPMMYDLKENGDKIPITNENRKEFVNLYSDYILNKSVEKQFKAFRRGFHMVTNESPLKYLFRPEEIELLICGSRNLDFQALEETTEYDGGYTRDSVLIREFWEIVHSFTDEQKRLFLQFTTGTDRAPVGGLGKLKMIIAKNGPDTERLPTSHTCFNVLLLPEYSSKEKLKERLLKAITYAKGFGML

Cen B = molecular target: T2, Cen B (Homo sapiens (assumed), UniProt P07199); assay: ELISA; autoantigen ELISA (legend: Athena autoantigen assay); antigens coated at 20 µg/ml overnight at 4°C; Abs in serial dilutions 45 min at RT; HRP anti-human IgG, TMB, 450 nm; details: both partners purified
T2 construct: Cen B autoantigen (centromere protein B) of the autoantigen ELISA
T2 sequence (P07199 whole entry): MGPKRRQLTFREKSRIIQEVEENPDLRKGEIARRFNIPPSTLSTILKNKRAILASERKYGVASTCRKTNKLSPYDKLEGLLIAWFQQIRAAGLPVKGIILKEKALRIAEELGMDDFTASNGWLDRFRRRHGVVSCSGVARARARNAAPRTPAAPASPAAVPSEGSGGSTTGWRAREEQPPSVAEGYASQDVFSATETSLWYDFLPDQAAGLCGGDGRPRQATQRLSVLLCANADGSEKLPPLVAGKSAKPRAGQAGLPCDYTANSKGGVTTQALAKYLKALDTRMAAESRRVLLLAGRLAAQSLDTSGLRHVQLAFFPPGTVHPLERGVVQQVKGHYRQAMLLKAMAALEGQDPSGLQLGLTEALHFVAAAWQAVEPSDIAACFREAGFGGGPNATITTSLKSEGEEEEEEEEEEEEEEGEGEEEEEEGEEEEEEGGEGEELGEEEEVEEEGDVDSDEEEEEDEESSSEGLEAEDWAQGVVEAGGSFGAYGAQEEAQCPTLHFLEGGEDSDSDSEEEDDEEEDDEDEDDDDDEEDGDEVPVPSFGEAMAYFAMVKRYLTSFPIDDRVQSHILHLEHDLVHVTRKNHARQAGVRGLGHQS

[2] = molecular target: host proteins on the ProtoArray (9,400 human proteins) (human); assay: peptide or protein array; ProtoArray (Invitrogen) with 9,400 human proteins, in duplicate; 2 µg/ml recombinant Ab, 1.5 hours at 4°C; detected with Alexa Fluor 647 anti-human IgG; compared with the control Ab 151K
[3] = molecular target: T3, UBE3A on the ProtoArray human protein microarray (Homo sapiens, UniProt Q05086); assay: as above; details: both partners purified
T3 construct: UBE3A, one of the 9,400 human proteins on the ProtoArray; source: bought: Invitrogen ProtoArray

[4] = molecular target: T4, host protein UBE3A (Abcam), coupled to Luminex beads (Homo sapiens, UniProt Q05086); assay: Luminex bead-based binding assay; UBE3A (Abcam) covalently linked to carboxylated beads; Abs serially diluted 1:3 from 2 µg/ml in PBS with 0.05% NaN3, 0.05% Tween 20, 1% BSA and 1% milk; 2 hours at room temperature; detected with PE goat anti-human IgG; details: both partners purified
T4 construct: UBE3A, host protein; bought from Abcam (printed there as UBE34); also called UBE34; source: bought: Abcam

[5] = molecular target: T5, UBE3A on the ProtoArray human protein microarray, Q05086; assay: ProtoArray protein array; details: chain shown with the change; red circle = UBE3A; x coordinate of the circle; parent: est. 45; read off a plot
T5 chain: T1 chain

Binder | binding result [4] | further results
B1 | – | response [1]: 2200 gMFI; binding result (Cen B): binds; polyreactivity index (PI) [2]: 0.14; fold higher binding than Abs without E64K [3]: ~10 fold
B2 | binds | –
B3 | binds | –
B4 | binds | –
B5 | binds | –
B6 | – | polyreactivity index (PI) [2]: 0.64; fold higher binding than Abs without E64K [3]: ~10 fold
B7 | binds | –
B8 | binds | –
B9 | no binding (tested: 2 µg/ml) | –
B10 | no binding (tested: 2 µg/ml) | response [1]: 8.5 gMFI; response [5]: 45 MFI
B11 | binds | –
B12 | binds | binding result (Cen B): binds
B13 | binds | –
B14 | binds | –
B15 | binds | –
B16 | – | fold reduction of binding against parental CH103 [4]: ~10 fold
B17 | – | fold reduction of binding against parental CH103 [4]: ~10 fold

— paper PMC9720396, “Autoreactivity and broad neutralization of antibodies against HIV-1 are governed by distinct mutations: Implications for vaccine design strategies” (Frontiers in Immunology, 2022)
